Read-outs that look alike come from different tables or passages of the source.
Experiments:
[1] = In vivo biodistribution of ^203Pb-labeled peptides; design: species or system mice; conditions: female, athymic nu/nu, mouse, total radioactivity; for tissue uptake at 3 h / tissue uptake at 24 h / tissue uptake at 1 h / tissue uptake at 6 h: intravenous; for tissue to tissue ratio at 1 h / tissue to tissue ratio at 3 h / tissue to tissue ratio at 24 h: iv
Description: (§1) AR42J cells (5.0 × 10^6 cells/animal) were implanted subcutaneously on the left shoulder of female athymic nu/nu mice. […] Extra groups of mice were co-administered 37 kBq of ^203Pb-PSC-PEG2-TOC with DL-lysine (400 mg/kg) to determine the effect of amino acid on renal uptake of the radiopharmaceutical. Mice (n=3 per time point) were euthanized at 1, 3, and 24 h post-administration, and tumors and organs/tissues of interest were excised and weighed. The radioactivities of the samples were measured using the gamma counter.

AR42J tumor xenograft = assay: In vivo biodistribution of ^203Pb-labeled peptides; design: species or system mice; conditions: DL-lysine 400 mg/kg, 3 h post-administration
Description: as §1

AR42J xenografts = assay: SPECT/CT imaging with blocking by unlabeled peptide; type: in vivo, mice; conditions: 11.1 MBq, 30 nmol unlabeled PSC-PEG2-TOC
Description: Serial SPECT/CT imaging was conducted at 3 h and 24 h post-administration. The imaging study was performed at the University of Iowa Small Animal Imaging Core using an INVEON trimodality SPECT/positron emission tomography (PET)/CT scanner (Siemens Preclinical, Knoxville, TN) equipped with medium-energy (0.3 mm) pinhole collimators. Data were reconstructed using three-dimensional ordered-subsets expectation maximization (OSEM-3D) algorithm with eight iterations and six subsets. Post-reconstruction images were smoothed with a 3D Gaussian kernel. Post-imaging biodistribution of the radiotracer in mice was obtained at 30 h post-administration.

Work on `C[C@@H](O)[C@@H]1NC(=O)[C@H](CCCCN)NC(=O)[C@@H](Cc2c[nH]c3ccccc23)NC(=O)[C@H](Cc2ccc(O)cc2)NC(=O)[C@@H](NC(=O)[C@@H](Cc2ccccc2)NC(=O)CCOCCOCCNC(=O)CN2CCN(CC(=O)O)CCN(CC(N)=O)CCN(CC(=O)O)CC2)CSSC[C@@H](C(=O)N[C@H](CO)[C@@H](C)O)NC1=O` [[^203Pb]Pb-PSC-PEG2-TOC, metal not drawn] yielded a tissue uptake at 3 h ([1]; lung, 37 kBq, 3 h post-administration, read-out: Lung) of 0.38 ± 0.07 %ID/g, a tissue uptake at 24 h ([1]; lung, 37 kBq, 24 h post-administration, read-out: Lung) of 1.46 ± 0.4 %ID/g and a tissue uptake at 1 h ([1]; lung, 1 h, DL-lysine co-administered, read-out: Lung) of 4.48 ± 4.47 %ID/g. For the same compound, the tissue uptake at 3 h ([1]; lung, 3 h (Blocking): 10 nmol unlabeled PSC-PEG2-TOC co-administered, read-out: Lung) was 0.26 ± 0.03 %ID/g, the tissue uptake at 3 h ([1]; lung, 3 h, DL-lysine co-administered, read-out: Lung) was 4.76 ± 3.19 %ID/g and the tissue uptake at 6 h ([1]; lung, DL-lysine co-administered, read-out: Lung) was 5.6 ± 1.27 %ID/g. It also gave a tissue uptake at 24 h ([1]; lung, 24 h, DL-lysine co-administered, read-out: Lung) of 1.11 ± 0.74 %ID/g, a tissue uptake at 1 h ([1]; muscle, 37 kBq, 1 h post-administration, read-out: Muscle) of 0.29 ± 0.27 %ID/g and a tissue uptake at 3 h ([1]; muscle, 37 kBq, 3 h (No Lys), Table S4 study, read-out: Muscle) of 0.17 ± 0.1 %ID/g. The tissue uptake at 3 h ([1]; muscle, 37 kBq, 3 h post-administration, read-out: Muscle) was 0.03 ± 0.01 %ID/g, the tissue uptake at 24 h ([1]; muscle, 37 kBq, 24 h post-administration, read-out: Muscle) was 0.02 ± 0.01 %ID/g and the tissue uptake at 1 h ([1]; muscle, 1 h, DL-lysine co-administered, read-out: Muscle) was 0.48 ± 0.26 %ID/g. For the same compound, the tissue uptake at 3 h ([1]; muscle, 3 h (Blocking): 10 nmol unlabeled PSC-PEG2-TOC co-administered, read-out: Muscle) was 0.06 ± 0.03 %ID/g, the tissue uptake at 3 h ([1]; muscle, 3 h, DL-lysine co-administered, read-out: Muscle) was 0.03 ± 0.01 %ID/g and the tissue uptake at 6 h ([1]; muscle, DL-lysine co-administered, read-out: Muscle) was 0.02 ± 0.02 %ID/g. For the same compound, the tissue uptake at 24 h ([1]; muscle, 24 h, DL-lysine co-administered, read-out: Muscle) was 0.01 ± 0.01 %ID/g, the tissue uptake at 3 h ([1]; pancreas, 37 kBq, 3 h (No Lys), Table S4 study, read-out: Pancreas) was 2.29 ± 1.63 %ID/g and the tissue uptake at 1 h ([1]; pancreas, 1 h, DL-lysine co-administered, read-out: Pancreas) was 5.04 ± 1.33 %ID/g. It also gave a tissue uptake at 3 h ([1]; pancreas, 3 h (Blocking): 10 nmol unlabeled PSC-PEG2-TOC co-administered, read-out: Pancreas) of 0.22 ± 0.04 %ID/g, a tissue uptake at 3 h ([1]; pancreas, 3 h, DL-lysine co-administered, read-out: Pancreas) of 2.1 ± 0.68 %ID/g and a tissue uptake at 6 h ([1]; pancreas, DL-lysine co-administered, read-out: Pancreas) of 0.75 ± 0.16 %ID/g. The tissue uptake at 24 h ([1]; pancreas, 24 h, DL-lysine co-administered, read-out: Pancreas) was 0.33 ± 0.08 %ID/g, the tissue uptake at 1 h ([1]; small intestine, 37 kBq, 1 h post-administration, read-out: Small intestine) was 1.34 ± 0.35 %ID/g and the tissue uptake at 3 h ([1]; small intestine, 37 kBq, 3 h (No Lys), Table S4 study, read-out: Small intestine) was 0.6 ± 0.11 %ID/g. For the same compound, the tissue uptake at 3 h ([1]; small intestine, 37 kBq, 3 h post-administration, read-out: Small intestine) was 1.85 ± 0.22 %ID/g, the tissue uptake at 24 h ([1]; small intestine, 37 kBq, 24 h post-administration, read-out: Small intestine) was 0.17 ± 0.01 %ID/g and the tissue uptake at 1 h ([1]; small intestine, 1 h, DL-lysine co-administered, read-out: Small intestine) was 1.9 ± 0.74 %ID/g. For the same compound, the tissue uptake at 3 h ([1]; small intestine, 3 h (Blocking): 10 nmol unlabeled PSC-PEG2-TOC co-administered, read-out: Small intestine) was 0.81 ± 0.71 %ID/g, the tissue uptake at 3 h ([1]; small intestine, 3 h, DL-lysine co-administered, read-out: Small intestine) was 2.37 ± 0.78 %ID/g and the tissue uptake at 6 h ([1]; small intestine, DL-lysine co-administered, read-out: Small intestine) was 0.94 ± 0.32 %ID/g. For the same compound, the tissue uptake at 24 h ([1]; small intestine, 24 h, DL-lysine co-administered, read-out: Small intestine) was 0.15 ± 0.02 %ID/g, the tissue uptake at 1 h ([1]; spleen, 37 kBq, 1 h post-administration, read-out: Spleen) was 1.21 ± 0.17 %ID/g and the tissue uptake at 3 h ([1]; spleen, 37 kBq, 3 h (No Lys), Table S4 study, read-out: Spleen) was 0.97 ± 0.47 %ID/g. For the same compound, the tissue uptake at 3 h ([1]; spleen, 37 kBq, 3 h post-administration, read-out: Spleen) was 0.54 ± 0.29 %ID/g, the tissue uptake at 24 h ([1]; spleen, 37 kBq, 24 h post-administration, read-out: Spleen) was 0.28 ± 0.07 %ID/g and the tissue uptake at 1 h ([1]; spleen, 1 h, DL-lysine co-administered, read-out: Spleen) was 1.04 ± 0.4 %ID/g. The tissue uptake at 3 h ([1]; spleen, 3 h (Blocking): 10 nmol unlabeled PSC-PEG2-TOC co-administered, read-out: Spleen) was 0.14 ± 0.07 %ID/g, the tissue uptake at 3 h ([1]; spleen, 3 h, DL-lysine co-administered, read-out: Spleen) was 0.81 ± 0.3 %ID/g and the tissue uptake at 6 h ([1]; spleen, DL-lysine co-administered, read-out: Spleen) was 0.73 ± 0.17 %ID/g. The tissue uptake at 24 h ([1]; spleen, 24 h, DL-lysine co-administered, read-out: Spleen) was 0.41 ± 0.28 %ID/g, the tissue uptake at 3 h ([1]; stomach, 37 kBq, 3 h (No Lys), Table S4 study, read-out: Stomach) was 0.95 ± 0.13 %ID/g and the tissue uptake at 1 h ([1]; stomach, 1 h, DL-lysine co-administered, read-out: Stomach) was 1.46 ± 0.32 %ID/g. For the same compound, the tissue uptake at 3 h ([1]; stomach, 3 h (Blocking): 10 nmol unlabeled PSC-PEG2-TOC co-administered, read-out: Stomach) was 0.36 ± 0.15 %ID/g, the tissue uptake at 3 h ([1]; stomach, 3 h, DL-lysine co-administered, read-out: Stomach) was 2.36 ± 0.44 %ID/g and the tissue uptake at 6 h ([1]; stomach, DL-lysine co-administered, read-out: Stomach) was 0.78 ± 0.2 %ID/g. It also gave a tissue uptake at 24 h ([1]; stomach, 24 h, DL-lysine co-administered, read-out: Stomach) of 0.3 ± 0.12 %ID/g, a tissue uptake at 1 h ([1]; tumor, 37 kBq, 1 h post-administration, read-out: Tumor) of 28.2 ± 8.63 %ID/g and a tissue uptake at 3 h ([1]; tumor, 37 kBq, 3 h (No Lys), Table S4 study, read-out: Tumor) of 19.8 ± 1.61 %ID/g. The tissue uptake at 3 h ([1]; tumor, 37 kBq, 3 h post-administration, read-out: Tumor) was 22.8 ± 2.8 %ID/g, the tissue uptake at 24 h ([1]; tumor, 37 kBq, 24 h post-administration, read-out: Tumor) was 12.2 ± 3.81 %ID/g and the tissue uptake at 1 h ([1]; tumor, 1 h, DL-lysine co-administered, read-out: Tumor) was 24.4 ± 1.85 %ID/g. The tissue uptake at 3 h ([1]; tumor, 3 h (Blocking): 10 nmol unlabeled PSC-PEG2-TOC co-administered, read-out: Tumor) was 2.41 ± 0.46 %ID/g, the tissue uptake at 3 h ([1]; tumor, 3 h, DL-lysine co-administered, read-out: Tumor) was 22.9 ± 1.09 %ID/g and the tissue uptake at 6 h ([1]; tumor, DL-lysine co-administered, read-out: Tumor) was 18.9 ± 1.86 %ID/g. For the same compound, the tissue uptake at 24 h ([1]; tumor, 24 h, DL-lysine co-administered, read-out: Tumor) was 7.44 ± 0.41 %ID/g, the tissue to tissue ratio at 1 h ([1]; tumor/blood, 37 kBq, 1 h post-administration, read-out: Tumor/blood ratio) was 78.3 and the tissue to tissue ratio at 3 h ([1]; tumor/blood, 37 kBq, 3 h post-administration, read-out: Tumor/blood ratio) was 456. It also gave a tissue to tissue ratio at 24 h ([1]; tumor/blood, 37 kBq, 24 h post-administration, read-out: Tumor/blood ratio) of 610, a tissue to tissue ratio at 1 h ([1]; tumor/kidneys, 37 kBq, 1 h post-administration, read-out: Tumor/kidneys ratio) of 1.37 and a tissue to tissue ratio at 3 h ([1]; tumor/kidneys, 37 kBq, 3 h post-administration, read-out: Tumor/kidneys ratio) of 1.44. The tissue to tissue ratio at 24 h ([1]; tumor/kidneys, 37 kBq, 24 h post-administration, read-out: Tumor/kidneys ratio) was 8.36, the tissue to tissue ratio at 1 h ([1]; tumor/liver, 37 kBq, 1 h post-administration, read-out: Tumor/liver ratio) was 78.3 and the tissue to tissue ratio at 3 h ([1]; tumor/liver, 37 kBq, 3 h post-administration, read-out: Tumor/liver ratio) was 99.1. The tissue to tissue ratio at 24 h ([1]; tumor/liver, 37 kBq, 24 h post-administration, read-out: Tumor/liver ratio) was 153, the tissue to tissue ratio at 1 h ([1]; tumor/lung, 37 kBq, 1 h post-administration, read-out: Tumor/lung ratio) was 7.87 and the tissue to tissue ratio at 3 h ([1]; tumor/lung, 37 kBq, 3 h post-administration, read-out: Tumor/lung ratio) was 60. The tissue to tissue ratio at 24 h ([1]; tumor/lung, 37 kBq, 24 h post-administration, read-out: Tumor/lung ratio) was 8.36, the tissue to tissue ratio at 1 h ([1]; tumor/muscle, 37 kBq, 1 h post-administration, read-out: Tumor/muscle ratio) was 97.2 and the tissue to tissue ratio at 3 h ([1]; tumor/muscle, 37 kBq, 3 h post-administration, read-out: Tumor/muscle ratio) was 760. For the same compound, the tissue to tissue ratio at 24 h ([1]; tumor/muscle, 37 kBq, 24 h post-administration, read-out: Tumor/muscle ratio) was 610, the “Reduction of renal accumulation by co-administration of DL-lysine” value (AR42J tumor xenograft) was 56% and the “Tumor uptake with co-administration of excessive unlabeled peptide” value (AR42J xenografts) was “almost completely blocked”.
